# Laboratory results: article PMC7372559 (ACS Chemical Biology, 2020)
# Target: the molecule itself
# Assay: SEC; Superdex-200 Increase column, 25 mM Tris-HCl (pH 8.0), 10% (v/v) glycerol, 100 mM NaCl; retention time of mutants compared with wild type
row,Protein,stoichiometry N
1,"OphMA V404T, full-length, His-tagged (enzyme, backbone N-methylation: 10-fold methylated species most abundant) METSTQTKAGSLTIVGTGIESIGQMTLQALSYIEAAAKVFYCVIDPATEAFILTKNKNCVDLYQYYDNGKSRLNTYTQMSELMVREVRKGLDVVGVFYGHPGVFVNPSHRALAIAKSEGYRARMLPGVSAEDCLFADLCIDPSNPGCLTYEASDFLIRDRPVSIHSHLVLFQVGCVGIADFNFTGFDNNKFGVLVDRLEQEYGAEHPVVHYIAAMMPHQDPVTDKYTVAQLREPEIAKRVGGVSTFYIPPKARKASNLDIIRRLELLPAGQVPDKKARIYPANQWEPDVPEVEPYRPSDQAAIAQLADHAPPEQYQPLATSKAMSDVMTKLALDPKALADYKADHRAFAQSVPDLTPQERAALELGDSWAIRCAMKNMPSSLLDAARESGEEASQNGFPWVIVTGVIGVIGSVMSTE",2
2,"OphMA V404F, full-length, His-tagged (enzyme, backbone N-methylation: mainly monomethylated) METSTQTKAGSLTIVGTGIESIGQMTLQALSYIEAAAKVFYCVIDPATEAFILTKNKNCVDLYQYYDNGKSRLNTYTQMSELMVREVRKGLDVVGVFYGHPGVFVNPSHRALAIAKSEGYRARMLPGVSAEDCLFADLCIDPSNPGCLTYEASDFLIRDRPVSIHSHLVLFQVGCVGIADFNFTGFDNNKFGVLVDRLEQEYGAEHPVVHYIAAMMPHQDPVTDKYTVAQLREPEIAKRVGGVSTFYIPPKARKASNLDIIRRLELLPAGQVPDKKARIYPANQWEPDVPEVEPYRPSDQAAIAQLADHAPPEQYQPLATSKAMSDVMTKLALDPKALADYKADHRAFAQSVPDLTPQERAALELGDSWAIRCAMKNMPSSLLDAARESGEEASQNGFPWVIVFGVIGVIGSVMSTE",2
3,"OphMA I407F, full-length, His-tagged (enzyme, backbone N-methylation: mainly a tetramethylated species with some pentamethylated species) METSTQTKAGSLTIVGTGIESIGQMTLQALSYIEAAAKVFYCVIDPATEAFILTKNKNCVDLYQYYDNGKSRLNTYTQMSELMVREVRKGLDVVGVFYGHPGVFVNPSHRALAIAKSEGYRARMLPGVSAEDCLFADLCIDPSNPGCLTYEASDFLIRDRPVSIHSHLVLFQVGCVGIADFNFTGFDNNKFGVLVDRLEQEYGAEHPVVHYIAAMMPHQDPVTDKYTVAQLREPEIAKRVGGVSTFYIPPKARKASNLDIIRRLELLPAGQVPDKKARIYPANQWEPDVPEVEPYRPSDQAAIAQLADHAPPEQYQPLATSKAMSDVMTKLALDPKALADYKADHRAFAQSVPDLTPQERAALELGDSWAIRCAMKNMPSSLLDAARESGEEASQNGFPWVIVVGVFGVIGSVMSTE",2
4,"OphMA V403F, full-length, His-tagged (enzyme, backbone N-methylation: comparably abundant monomethylated, dimethylated, trimethylated and tetramethylated species) METSTQTKAGSLTIVGTGIESIGQMTLQALSYIEAAAKVFYCVIDPATEAFILTKNKNCVDLYQYYDNGKSRLNTYTQMSELMVREVRKGLDVVGVFYGHPGVFVNPSHRALAIAKSEGYRARMLPGVSAEDCLFADLCIDPSNPGCLTYEASDFLIRDRPVSIHSHLVLFQVGCVGIADFNFTGFDNNKFGVLVDRLEQEYGAEHPVVHYIAAMMPHQDPVTDKYTVAQLREPEIAKRVGGVSTFYIPPKARKASNLDIIRRLELLPAGQVPDKKARIYPANQWEPDVPEVEPYRPSDQAAIAQLADHAPPEQYQPLATSKAMSDVMTKLALDPKALADYKADHRAFAQSVPDLTPQERAALELGDSWAIRCAMKNMPSSLLDAARESGEEASQNGFPWVIFVGVIGVIGSVMSTE",2
5,"OphMA I407T, full-length, His-tagged (enzyme, backbone N-methylation: 9-fold methylated species most abundant) METSTQTKAGSLTIVGTGIESIGQMTLQALSYIEAAAKVFYCVIDPATEAFILTKNKNCVDLYQYYDNGKSRLNTYTQMSELMVREVRKGLDVVGVFYGHPGVFVNPSHRALAIAKSEGYRARMLPGVSAEDCLFADLCIDPSNPGCLTYEASDFLIRDRPVSIHSHLVLFQVGCVGIADFNFTGFDNNKFGVLVDRLEQEYGAEHPVVHYIAAMMPHQDPVTDKYTVAQLREPEIAKRVGGVSTFYIPPKARKASNLDIIRRLELLPAGQVPDKKARIYPANQWEPDVPEVEPYRPSDQAAIAQLADHAPPEQYQPLATSKAMSDVMTKLALDPKALADYKADHRAFAQSVPDLTPQERAALELGDSWAIRCAMKNMPSSLLDAARESGEEASQNGFPWVIVVGVTGVIGSVMSTE",2
6,"OphMA V406F, full-length, His-tagged (enzyme, backbone N-methylation: a tetramethylated species and, to a lesser extent, a trimethylated species) METSTQTKAGSLTIVGTGIESIGQMTLQALSYIEAAAKVFYCVIDPATEAFILTKNKNCVDLYQYYDNGKSRLNTYTQMSELMVREVRKGLDVVGVFYGHPGVFVNPSHRALAIAKSEGYRARMLPGVSAEDCLFADLCIDPSNPGCLTYEASDFLIRDRPVSIHSHLVLFQVGCVGIADFNFTGFDNNKFGVLVDRLEQEYGAEHPVVHYIAAMMPHQDPVTDKYTVAQLREPEIAKRVGGVSTFYIPPKARKASNLDIIRRLELLPAGQVPDKKARIYPANQWEPDVPEVEPYRPSDQAAIAQLADHAPPEQYQPLATSKAMSDVMTKLALDPKALADYKADHRAFAQSVPDLTPQERAALELGDSWAIRCAMKNMPSSLLDAARESGEEASQNGFPWVIVVGFIGVIGSVMSTE",2
7,"OphMA V406T, full-length, His-tagged (enzyme, backbone N-methylation: 3-fold methylated species most abundant) METSTQTKAGSLTIVGTGIESIGQMTLQALSYIEAAAKVFYCVIDPATEAFILTKNKNCVDLYQYYDNGKSRLNTYTQMSELMVREVRKGLDVVGVFYGHPGVFVNPSHRALAIAKSEGYRARMLPGVSAEDCLFADLCIDPSNPGCLTYEASDFLIRDRPVSIHSHLVLFQVGCVGIADFNFTGFDNNKFGVLVDRLEQEYGAEHPVVHYIAAMMPHQDPVTDKYTVAQLREPEIAKRVGGVSTFYIPPKARKASNLDIIRRLELLPAGQVPDKKARIYPANQWEPDVPEVEPYRPSDQAAIAQLADHAPPEQYQPLATSKAMSDVMTKLALDPKALADYKADHRAFAQSVPDLTPQERAALELGDSWAIRCAMKNMPSSLLDAARESGEEASQNGFPWVIVVGTIGVIGSVMSTE",2

# Target: the molecule itself
# Assay: crystal structure; hanging drop, 16 °C; protein (30-50 mg/mL) preincubated with 3 mM SAM; 0.3-0.4 M KSCN, 1.8-2.4 M sodium malonate, 0.1 M bicine pH 8.5-9.3; SAH bound
row,Protein,binding result
1,"OphMAΔC6-V404F (crystallised with SAH) (enzyme, backbone N-methyl at Val401 and Val403 (in the crystal structure)) METSTQTKAGSLTIVGTGIESIGQMTLQALSYIEAAAKVFYCVIDPATEAFILTKNKNCVDLYQYYDNGKSRLNTYTQMSELMVREVRKGLDVVGVFYGHPGVFVNPSHRALAIAKSEGYRARMLPGVSAEDCLFADLCIDPSNPGCLTYEASDFLIRDRPVSIHSHLVLFQVGCVGIADFNFTGFDNNKFGVLVDRLEQEYGAEHPVVHYIAAMMPHQDPVTDKYTVAQLREPEIAKRVGGVSTFYIPPKARKASNLDIIRRLELLPAGQVPDKKARIYPANQWEPDVPEVEPYRPSDQAAIAQLADHAPPEQYQPLATSKAMSDVMTKLALDPKALADYKADHRAFAQSVPDLTPQERAALELGDSWAIRCAMKNMPSSLLDAARESGEEASQNGFPWVIVFGVIGVIG",binds
